Non-standard residues stand in square brackets, D forms with d. No end group written: not given here. 4Amb = NCc1ccc(C(=O)O)cc1
B1: 4-Aminomethylbenzoyl-[Ala26, Gln27, Ile28,31]-PYY(25-36) (peptide)
peptide: [4Amb]RAQINLITRQRY-NH2
modifications: N-terminus assumed
SMILES: CC[C@H](C)[C@H](NC(=O)[C@H](CCC(N)=O)NC(=O)[C@H](C)NC(=O)[C@H](CCCNC(=N)N)NC(=O)c1ccc(CN)cc1)C(=O)N[C@@H](CC(N)=O)C(=O)N[C@@H](CC(C)C)C(=O)N[C@H](C(=O)N[C@H](C(=O)N[C@@H](CCCNC(=N)N)C(=O)N[C@@H](CCC(N)=O)C(=O)N[C@@H](CCCNC(=N)N)C(=O)N[C@@H](Cc1ccc(O)cc1)C(N)=O)[C@@H](C)O)[C@@H](C)CC
notes: also called compound No. 30
B2: 4-Aminomethylbenzoyl-[Ala26, Ile28,31, Gly30]-PYY(25-36) (peptide)
peptide: [4Amb]RAYINGITRQRY-NH2
modifications: N-terminus assumed
SMILES: CC[C@H](C)[C@H](NC(=O)CNC(=O)[C@H](CC(N)=O)NC(=O)[C@@H](NC(=O)[C@H](Cc1ccc(O)cc1)NC(=O)[C@H](C)NC(=O)[C@H](CCCNC(=N)N)NC(=O)c1ccc(CN)cc1)[C@@H](C)CC)C(=O)N[C@H](C(=O)N[C@@H](CCCNC(=N)N)C(=O)N[C@@H](CCC(N)=O)C(=O)N[C@@H](CCCNC(=N)N)C(=O)N[C@@H](Cc1ccc(O)cc1)C(N)=O)[C@@H](C)O
notes: also called compound No. 45
B3: 4-Aminomethylbenzoyl-[Ala26, Ile28,31, Leu32]-PYY(25-36) (peptide)
peptide: [4Amb]RAYINLILRQRY-NH2
modifications: N-terminus assumed
SMILES: CC[C@H](C)[C@H](NC(=O)[C@H](Cc1ccc(O)cc1)NC(=O)[C@H](C)NC(=O)[C@H](CCCNC(=N)N)NC(=O)c1ccc(CN)cc1)C(=O)N[C@@H](CC(N)=O)C(=O)N[C@@H](CC(C)C)C(=O)N[C@H](C(=O)N[C@@H](CC(C)C)C(=O)N[C@@H](CCCNC(=N)N)C(=O)N[C@@H](CCC(N)=O)C(=O)N[C@@H](CCCNC(=N)N)C(=O)N[C@@H](Cc1ccc(O)cc1)C(N)=O)[C@@H](C)CC
notes: also called compound No. 62
B4: 4-Aminomethylbenzoyl-[Ala26, Ile28,31, Phe30]-PYY(25-36) (peptide)
peptide: [4Amb]RAYINFITRQRY-NH2
modifications: N-terminus assumed
SMILES: CC[C@H](C)[C@H](NC(=O)[C@H](Cc1ccc(O)cc1)NC(=O)[C@H](C)NC(=O)[C@H](CCCNC(=N)N)NC(=O)c1ccc(CN)cc1)C(=O)N[C@@H](CC(N)=O)C(=O)N[C@@H](Cc1ccccc1)C(=O)N[C@H](C(=O)N[C@H](C(=O)N[C@@H](CCCNC(=N)N)C(=O)N[C@@H](CCC(N)=O)C(=O)N[C@@H](CCCNC(=N)N)C(=O)N[C@@H](Cc1ccc(O)cc1)C(N)=O)[C@@H](C)O)[C@@H](C)CC
notes: also called compound No. 54
B5: 4-Aminomethylbenzoyl-[Ala26, Ile28,31, Phe36]-PYY(25-36) (peptide)
peptide: [4Amb]RAYINLITRQRF-NH2
modifications: N-terminus assumed
SMILES: CC[C@H](C)[C@H](NC(=O)[C@H](Cc1ccc(O)cc1)NC(=O)[C@H](C)NC(=O)[C@H](CCCNC(=N)N)NC(=O)c1ccc(CN)cc1)C(=O)N[C@@H](CC(N)=O)C(=O)N[C@@H](CC(C)C)C(=O)N[C@H](C(=O)N[C@H](C(=O)N[C@@H](CCCNC(=N)N)C(=O)N[C@@H](CCC(N)=O)C(=O)N[C@@H](CCCNC(=N)N)C(=O)N[C@@H](Cc1ccccc1)C(N)=O)[C@@H](C)O)[C@@H](C)CC
notes: also called compound No. 6
B6: 4-Aminomethylbenzoyl-[Ala26, Ile28,31, Ser32]-PYY(25-36) (peptide)
peptide: [4Amb]RAYINLISRQRY-NH2
modifications: N-terminus assumed
SMILES: CC[C@H](C)[C@H](NC(=O)[C@H](Cc1ccc(O)cc1)NC(=O)[C@H](C)NC(=O)[C@H](CCCNC(=N)N)NC(=O)c1ccc(CN)cc1)C(=O)N[C@@H](CC(N)=O)C(=O)N[C@@H](CC(C)C)C(=O)N[C@H](C(=O)N[C@@H](CO)C(=O)N[C@@H](CCCNC(=N)N)C(=O)N[C@@H](CCC(N)=O)C(=O)N[C@@H](CCCNC(=N)N)C(=O)N[C@@H](Cc1ccc(O)cc1)C(N)=O)[C@@H](C)CC
notes: also called compound No. 60
B7: 4-Aminomethylbenzoyl-[Ala26, Ile28,31, Tyr30]-PYY(25-36) (peptide)
peptide: [4Amb]RAYINYITRQRY-NH2
modifications: N-terminus assumed
SMILES: CC[C@H](C)[C@H](NC(=O)[C@H](Cc1ccc(O)cc1)NC(=O)[C@H](C)NC(=O)[C@H](CCCNC(=N)N)NC(=O)c1ccc(CN)cc1)C(=O)N[C@@H](CC(N)=O)C(=O)N[C@@H](Cc1ccc(O)cc1)C(=O)N[C@H](C(=O)N[C@H](C(=O)N[C@@H](CCCNC(=N)N)C(=O)N[C@@H](CCC(N)=O)C(=O)N[C@@H](CCCNC(=N)N)C(=O)N[C@@H](Cc1ccc(O)cc1)C(N)=O)[C@@H](C)O)[C@@H](C)CC
notes: also called compound No. 57
B8: 4-Aminomethylbenzoyl-[Ala26, Ile28, Phe31]-PYY(25-36) (peptide)
peptide: [4Amb]RAYINLFTRQRY-NH2
modifications: N-terminus assumed
SMILES: CC[C@H](C)[C@H](NC(=O)[C@H](Cc1ccc(O)cc1)NC(=O)[C@H](C)NC(=O)[C@H](CCCNC(=N)N)NC(=O)c1ccc(CN)cc1)C(=O)N[C@@H](CC(N)=O)C(=O)N[C@@H](CC(C)C)C(=O)N[C@@H](Cc1ccccc1)C(=O)N[C@H](C(=O)N[C@@H](CCCNC(=N)N)C(=O)N[C@@H](CCC(N)=O)C(=O)N[C@@H](CCCNC(=N)N)C(=O)N[C@@H](Cc1ccc(O)cc1)C(N)=O)[C@@H](C)O
notes: also called compound No. 59
B9: 4-Aminomethylbenzoyl-[Ala26, Ile31]-PYY(25-36) (peptide)
peptide: [4Amb]RAYLNLITRQRY-NH2
modifications: N-terminus assumed
SMILES: CC[C@H](C)[C@H](NC(=O)[C@H](CC(C)C)NC(=O)[C@H](CC(N)=O)NC(=O)[C@H](CC(C)C)NC(=O)[C@H](Cc1ccc(O)cc1)NC(=O)[C@H](C)NC(=O)[C@H](CCCNC(=N)N)NC(=O)c1ccc(CN)cc1)C(=O)N[C@H](C(=O)N[C@@H](CCCNC(=N)N)C(=O)N[C@@H](CCC(N)=O)C(=O)N[C@@H](CCCNC(=N)N)C(=O)N[C@@H](Cc1ccc(O)cc1)C(N)=O)[C@@H](C)O
notes: also called compound No. 20
B10: 4-Aminomethylbenzoyl-[Ala26, Phe28, Ile31]-PYY(25-36) (peptide)
peptide: [4Amb]RAYFNLITRQRY-NH2
modifications: N-terminus assumed
SMILES: CC[C@H](C)[C@H](NC(=O)[C@H](CC(C)C)NC(=O)[C@H](CC(N)=O)NC(=O)[C@H](Cc1ccccc1)NC(=O)[C@H](Cc1ccc(O)cc1)NC(=O)[C@H](C)NC(=O)[C@H](CCCNC(=N)N)NC(=O)c1ccc(CN)cc1)C(=O)N[C@H](C(=O)N[C@@H](CCCNC(=N)N)C(=O)N[C@@H](CCC(N)=O)C(=O)N[C@@H](CCCNC(=N)N)C(=O)N[C@@H](Cc1ccc(O)cc1)C(N)=O)[C@@H](C)O
notes: also called compound No. 22
B11: 4-Aminomethylbenzoyl-[Ala26, Trp27, Ile28,31]-PYY(25-36) (peptide)
peptide: [4Amb]RAWINLITRQRY-NH2
modifications: N-terminus assumed
SMILES: CC[C@H](C)[C@H](NC(=O)[C@H](Cc1c[nH]c2ccccc12)NC(=O)[C@H](C)NC(=O)[C@H](CCCNC(=N)N)NC(=O)c1ccc(CN)cc1)C(=O)N[C@@H](CC(N)=O)C(=O)N[C@@H](CC(C)C)C(=O)N[C@H](C(=O)N[C@H](C(=O)N[C@@H](CCCNC(=N)N)C(=O)N[C@@H](CCC(N)=O)C(=O)N[C@@H](CCCNC(=N)N)C(=O)N[C@@H](Cc1ccc(O)cc1)C(N)=O)[C@@H](C)O)[C@@H](C)CC
notes: also called compound No. 51
B12: 4-Aminomethylbenzoyl-[Ala26, Trp28, Ile31]-PYY(25-36) (peptide)
peptide: [4Amb]RAYWNLITRQRY-NH2
modifications: N-terminus assumed
SMILES: CC[C@H](C)[C@H](NC(=O)[C@H](CC(C)C)NC(=O)[C@H](CC(N)=O)NC(=O)[C@H](Cc1c[nH]c2ccccc12)NC(=O)[C@H](Cc1ccc(O)cc1)NC(=O)[C@H](C)NC(=O)[C@H](CCCNC(=N)N)NC(=O)c1ccc(CN)cc1)C(=O)N[C@H](C(=O)N[C@@H](CCCNC(=N)N)C(=O)N[C@@H](CCC(N)=O)C(=O)N[C@@H](CCCNC(=N)N)C(=O)N[C@@H](Cc1ccc(O)cc1)C(N)=O)[C@@H](C)O
notes: also called compound No. 23
B13: 4-Aminomethylbenzoyl-[Arg26, Ile28,31]-PYY(25-36) (peptide)
peptide: [4Amb]RRYINLITRQRY-NH2
modifications: N-terminus assumed
SMILES: CC[C@H](C)[C@H](NC(=O)[C@H](Cc1ccc(O)cc1)NC(=O)[C@H](CCCNC(=N)N)NC(=O)[C@H](CCCNC(=N)N)NC(=O)c1ccc(CN)cc1)C(=O)N[C@@H](CC(N)=O)C(=O)N[C@@H](CC(C)C)C(=O)N[C@H](C(=O)N[C@H](C(=O)N[C@@H](CCCNC(=N)N)C(=O)N[C@@H](CCC(N)=O)C(=O)N[C@@H](CCCNC(=N)N)C(=O)N[C@@H](Cc1ccc(O)cc1)C(N)=O)[C@@H](C)O)[C@@H](C)CC
notes: also called compound No. 18
B14: 4-Aminomethylbenzoyl-[Gly26, Ile28,31]-PYY(25-36) (peptide)
peptide: [4Amb]RGYINLITRQRY-NH2
modifications: N-terminus assumed
SMILES: CC[C@H](C)[C@H](NC(=O)[C@H](Cc1ccc(O)cc1)NC(=O)CNC(=O)[C@H](CCCNC(=N)N)NC(=O)c1ccc(CN)cc1)C(=O)N[C@@H](CC(N)=O)C(=O)N[C@@H](CC(C)C)C(=O)N[C@H](C(=O)N[C@H](C(=O)N[C@@H](CCCNC(=N)N)C(=O)N[C@@H](CCC(N)=O)C(=O)N[C@@H](CCCNC(=N)N)C(=O)N[C@@H](Cc1ccc(O)cc1)C(N)=O)[C@@H](C)O)[C@@H](C)CC
notes: also called compound No. 50

Each binder was assayed against T1, human Y2 receptor (human, UniProt P49146 1-381) (assay: RBA: [125I]-PYY displacement, hY2R/CHO membranes).
T1 construct: whole, on cells; used as membrane fraction of hY2R/CHO cells; also called human NPY2R; hY2R
T1 sequence (looked up): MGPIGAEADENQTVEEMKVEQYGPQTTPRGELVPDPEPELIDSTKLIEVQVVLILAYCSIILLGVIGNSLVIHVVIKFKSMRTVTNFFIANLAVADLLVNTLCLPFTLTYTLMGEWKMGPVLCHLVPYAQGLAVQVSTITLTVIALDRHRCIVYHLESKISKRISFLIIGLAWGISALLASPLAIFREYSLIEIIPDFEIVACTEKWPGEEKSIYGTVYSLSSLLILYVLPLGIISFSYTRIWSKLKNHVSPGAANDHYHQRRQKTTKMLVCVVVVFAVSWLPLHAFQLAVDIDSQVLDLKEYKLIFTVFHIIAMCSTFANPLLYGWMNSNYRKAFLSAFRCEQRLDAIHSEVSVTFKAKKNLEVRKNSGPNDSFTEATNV
Outline: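 Bound radioligand was collected by filtration on PEI-treated GF/C filters, washed with Tris/MgCl₂/NaCl/CHAPS buffer pH 7.4, and counted by scintillation; IC₅₀ values were calculated.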

Point of comparison: B1, “IC50 Ratio (vs PYY(3-36))” value 25 ratio. Against it:
- B2 — lower, 21 ratio
- B3 — lower, 18 ratio
- B4 — lower, 5.7 ratio
- B5 — lower, 5.1 ratio
- B6 — higher, 180 ratio
- B7 — lower, 2.8 ratio
- B8 — lower, 16 ratio
- B9 — lower, 2.8 ratio
- B10 — lower, 4.1 ratio
- B11 — lower, 9.5 ratio
- B12 — lower, 3.4 ratio
- B13 — lower, 4 ratio
- B14 — lower, 7.1 ratio

Each binder was assayed against T1, human Y2 receptor (assay: cell-based or functional assay).

Point of comparison: B9, “GBA EC50 Ratio (vs PYY(3-36)), [35S]GTPγS” value 2 ratio. Against it:
- B1 — higher, 14 ratio
- B2 — higher, 12 ratio
- B3 — higher, 15 ratio
- B4 — higher, 3.4 ratio
- B5 — higher, 5.9 ratio
- B6 — higher, 44 ratio
- B7 — lower, 1.9 ratio
- B8 — higher, 6.6 ratio
- B10 — higher, 3.5 ratio
- B11 — higher, 5.3 ratio
- B12 — higher, 5 ratio
- B13 — higher, 3 ratio
- B14 — higher, 4.6 ratio

Reference: US20120172293A1 (Takeda / Millennium, published 2012)
